Some targets named below: mCherry-PICK1 WT (mouse) (UniProt Q62083); mGFP-KIBRA ΔαBR (mouse) (UniProt Q5SXA9); mCherry-KIBRA WT (mouse) (UniProt Q5SXA9); mGFP-KIBRA ΔCCL (mouse) (UniProt Q5SXA9); mGFP-PICK1 5K-E (mouse) (UniProt Q62083); mGFP-KIBRA ΔC2 (mouse) (UniProt Q5SXA9).
Common to all, as to assay: co-IP

Chain of mCherry-PICK1 WT (mouse) (Q62083 whole entry): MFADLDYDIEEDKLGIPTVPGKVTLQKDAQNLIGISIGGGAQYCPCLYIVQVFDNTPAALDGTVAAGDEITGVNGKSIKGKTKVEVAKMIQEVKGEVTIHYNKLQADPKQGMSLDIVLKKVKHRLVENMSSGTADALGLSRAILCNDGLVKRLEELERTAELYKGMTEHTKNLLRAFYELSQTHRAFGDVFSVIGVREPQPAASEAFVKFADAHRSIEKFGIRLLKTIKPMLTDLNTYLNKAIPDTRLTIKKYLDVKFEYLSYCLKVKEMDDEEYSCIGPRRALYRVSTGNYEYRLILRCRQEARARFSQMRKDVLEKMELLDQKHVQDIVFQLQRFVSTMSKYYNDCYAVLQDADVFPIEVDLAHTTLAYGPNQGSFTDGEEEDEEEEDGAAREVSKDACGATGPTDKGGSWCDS
Chain of mGFP-KIBRA ΔαBR (Q5SXA9 whole entry, stated change not applied): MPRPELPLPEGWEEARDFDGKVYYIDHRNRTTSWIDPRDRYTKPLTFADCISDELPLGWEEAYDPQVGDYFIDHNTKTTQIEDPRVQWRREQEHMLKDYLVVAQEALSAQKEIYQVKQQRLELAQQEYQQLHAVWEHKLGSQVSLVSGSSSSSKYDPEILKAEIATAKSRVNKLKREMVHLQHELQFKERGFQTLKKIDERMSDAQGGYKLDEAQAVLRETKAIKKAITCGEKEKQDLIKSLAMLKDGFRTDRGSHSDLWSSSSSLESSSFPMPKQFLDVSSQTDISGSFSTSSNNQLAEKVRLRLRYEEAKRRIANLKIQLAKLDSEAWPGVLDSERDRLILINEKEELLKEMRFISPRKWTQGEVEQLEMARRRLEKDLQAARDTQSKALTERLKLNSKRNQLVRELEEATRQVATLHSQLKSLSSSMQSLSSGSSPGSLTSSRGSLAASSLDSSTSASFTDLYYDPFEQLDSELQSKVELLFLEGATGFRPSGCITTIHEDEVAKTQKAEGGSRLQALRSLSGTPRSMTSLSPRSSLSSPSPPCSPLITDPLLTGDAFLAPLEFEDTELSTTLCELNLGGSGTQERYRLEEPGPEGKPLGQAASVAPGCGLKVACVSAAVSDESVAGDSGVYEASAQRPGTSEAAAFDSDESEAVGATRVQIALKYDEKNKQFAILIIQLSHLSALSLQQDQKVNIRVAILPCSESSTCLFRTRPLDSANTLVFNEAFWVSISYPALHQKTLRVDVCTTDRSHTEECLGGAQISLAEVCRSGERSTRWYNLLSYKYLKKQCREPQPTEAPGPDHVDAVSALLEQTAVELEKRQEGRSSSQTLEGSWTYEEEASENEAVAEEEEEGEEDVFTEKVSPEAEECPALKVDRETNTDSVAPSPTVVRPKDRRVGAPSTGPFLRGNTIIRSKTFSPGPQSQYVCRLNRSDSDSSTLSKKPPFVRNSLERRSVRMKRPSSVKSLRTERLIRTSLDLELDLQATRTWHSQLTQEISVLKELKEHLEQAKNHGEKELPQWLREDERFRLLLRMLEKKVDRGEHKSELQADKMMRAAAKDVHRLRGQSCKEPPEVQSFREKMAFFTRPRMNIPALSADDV
Chain of mGFP-KIBRA ΔC2 (Q5SXA9 whole entry, stated change not applied): as above
Chain of mGFP-KIBRA ΔCCL (Q5SXA9 whole entry, stated change not applied): as above
Chain of mCherry-KIBRA WT (mouse) (Q5SXA9 whole entry): as the sequence (Q5SXA9 whole entry, stated change not applied) above
Chain of mGFP-PICK1 5K-E (mouse) (Q62083 whole entry): as the sequence (Q62083 whole entry) above
Chain of Myc-GluA2 (P19491 22-883): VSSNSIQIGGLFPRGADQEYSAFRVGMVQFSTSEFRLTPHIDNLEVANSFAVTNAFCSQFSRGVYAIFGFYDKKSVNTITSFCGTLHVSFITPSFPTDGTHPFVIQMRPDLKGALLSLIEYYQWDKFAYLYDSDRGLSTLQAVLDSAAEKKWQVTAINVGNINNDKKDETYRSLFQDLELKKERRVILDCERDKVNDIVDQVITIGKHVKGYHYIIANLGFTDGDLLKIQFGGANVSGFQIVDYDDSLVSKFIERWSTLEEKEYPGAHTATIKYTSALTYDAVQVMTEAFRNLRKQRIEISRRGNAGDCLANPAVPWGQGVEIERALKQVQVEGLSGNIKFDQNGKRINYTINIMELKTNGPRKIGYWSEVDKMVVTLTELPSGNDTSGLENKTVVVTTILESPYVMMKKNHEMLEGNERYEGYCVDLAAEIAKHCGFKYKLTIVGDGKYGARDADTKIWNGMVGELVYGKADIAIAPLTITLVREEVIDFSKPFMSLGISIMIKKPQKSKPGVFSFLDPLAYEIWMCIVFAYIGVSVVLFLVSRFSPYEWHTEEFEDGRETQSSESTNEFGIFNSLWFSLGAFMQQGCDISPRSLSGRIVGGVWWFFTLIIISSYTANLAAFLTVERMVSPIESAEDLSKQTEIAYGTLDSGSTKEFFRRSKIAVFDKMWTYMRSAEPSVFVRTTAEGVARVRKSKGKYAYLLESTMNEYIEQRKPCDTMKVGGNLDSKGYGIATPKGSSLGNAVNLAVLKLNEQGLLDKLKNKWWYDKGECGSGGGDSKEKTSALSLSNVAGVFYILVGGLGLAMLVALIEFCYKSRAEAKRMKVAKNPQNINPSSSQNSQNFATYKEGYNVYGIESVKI
Chain of mCherry-KIBRA WT (Q5SXA9 whole entry): as the sequence (Q5SXA9 whole entry, stated change not applied) above
Chain of mGFP-KIBRA ΔWW (Q5SXA9 whole entry, stated change not applied): as above
Chain of mGFP-PICK1 BAR (domain or fragment) (Q62083 whole entry, the tested form may be a part): as the sequence (Q62083 whole entry) above
Chain of mGFP-PICK1 KD-AA (Q62083 whole entry): as above

“mGFP-KIBRA ΔWW (from UniProt Q5SXA9 1-1104) (natural protein)”: the co-precipitated KIBRA relative to KIBRA WT with mCherry-PICK1 WT (mouse) was 1.79 fold of WT.

Consider “mGFP-KIBRA ΔαBR (from UniProt Q5SXA9 1-1104) (natural protein)”, for which the co-precipitated mGFP-KIBRA relative to KIBRA WT with mGFP-KIBRA ΔαBR (mouse) is 1.55 fold of WT. The co-precipitated KIBRA relative to KIBRA WT with mCherry-PICK1 WT (mouse) was 1.94 fold of WT.

On to “mGFP-PICK1 KD-AA (from UniProt Q62083 1-416) (natural protein)”, for which, in the assay with mCherry-KIBRA WT (mouse), the co-precipitated PICK1 relative to PICK1 WT was 0.81 fold of WT.

As for “mGFP-KIBRA ΔCCL (from UniProt Q5SXA9 1-1104) (natural protein)”, the co-precipitated mGFP-KIBRA relative to KIBRA WT with mGFP-KIBRA ΔCCL (mouse) was 1.6 fold of WT. In addition, the co-precipitated KIBRA relative to KIBRA WT with mCherry-PICK1 WT (mouse) was 1.48 fold of WT.

With “mCherry-KIBRA WT (from UniProt Q5SXA9 1-1104) (natural protein)”, the co-precipitated KIBRA relative to PICK1 WT with mGFP-PICK1 5K-E (mouse) was 0.63 fold of WT.

On to “Myc-GluA2 (from UniProt P19491 22-883) (receptor)”, for which, in the assay with mGFP-PICK1 5K-E (mouse), the co-precipitated GluA2 relative to PICK1 WT (mCherry-KIBRA co-expressed) is 0.27 fold of WT.

Take mGFP-PICK1 BAR (domain or fragment): in the assay with mCherry-KIBRA WT (mouse), the co-precipitated PICK1 relative to PICK1 WT was 1.62 fold of WT.

Regarding “mGFP-KIBRA ΔC2 (from UniProt Q5SXA9 1-1104) (natural protein)”, the co-precipitated mGFP-KIBRA relative to KIBRA WT in the assay with mGFP-KIBRA ΔC2 (mouse) is 1.36 fold of WT. Besides, in the assay with mCherry-PICK1 WT (mouse), the co-precipitated KIBRA relative to KIBRA WT is 1.29 fold of WT.

For the origin of these results see paper PMC12136796.
